Holding throughout (experiment): ELISA; host protein coated on microtiter wells; recombinant protein varied from 0 to 2 μM; absorbance with BSA subtracted; apparent Kd from the half-maximal binding concentration (GraphPad Prism 6)
For orientation: An ELISA detects its analyte on a solid surface through an enzyme-linked reagent.

Assay [1] addresses collagen Type IV (purified from basement membrane of Engelbreth-Holm-Swarm mouse sarcoma) (mouse) (UniProt P02463).
Assay [2] concerns the target fibrinogen (purified from human plasma) (human) (UniProt P02671).
The target in assay [3] is elastin (purified from bovine neck ligament) (bovine) (UniProt P04985).
Chain of elastin (purified from bovine neck ligament) (bovine) (P04985 27-747): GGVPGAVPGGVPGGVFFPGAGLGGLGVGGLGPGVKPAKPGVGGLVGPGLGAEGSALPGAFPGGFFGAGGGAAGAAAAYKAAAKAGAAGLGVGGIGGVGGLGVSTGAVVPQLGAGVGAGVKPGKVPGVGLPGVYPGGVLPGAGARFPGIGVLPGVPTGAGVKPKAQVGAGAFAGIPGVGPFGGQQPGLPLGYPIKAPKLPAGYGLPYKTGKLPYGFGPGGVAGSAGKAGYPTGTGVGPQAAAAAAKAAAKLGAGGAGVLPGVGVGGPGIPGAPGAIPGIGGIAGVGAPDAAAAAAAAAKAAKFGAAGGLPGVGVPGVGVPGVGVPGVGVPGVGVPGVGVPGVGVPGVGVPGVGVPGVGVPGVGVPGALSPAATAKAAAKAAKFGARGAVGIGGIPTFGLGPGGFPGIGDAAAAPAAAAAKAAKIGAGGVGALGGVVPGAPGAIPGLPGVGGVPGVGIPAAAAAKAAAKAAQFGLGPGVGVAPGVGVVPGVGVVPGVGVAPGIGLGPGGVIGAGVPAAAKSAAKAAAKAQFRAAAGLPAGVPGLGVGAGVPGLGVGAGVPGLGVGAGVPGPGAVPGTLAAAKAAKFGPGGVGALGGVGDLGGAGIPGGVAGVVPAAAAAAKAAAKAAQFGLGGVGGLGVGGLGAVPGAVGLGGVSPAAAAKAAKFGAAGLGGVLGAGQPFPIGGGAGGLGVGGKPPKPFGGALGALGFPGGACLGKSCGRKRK
Assay [4] concerns the target plasma fibronectin (purified from human plasma) (human).
In assay [5] the target is plasminogen (purified from human plasma) (human).
In assay [6] the target is collagen Type I (purified from rat tail) (rat) (UniProt P02454).
Chain of collagen Type I (purified from rat tail) (rat) (P02454 152-1207, chain 1 of 2): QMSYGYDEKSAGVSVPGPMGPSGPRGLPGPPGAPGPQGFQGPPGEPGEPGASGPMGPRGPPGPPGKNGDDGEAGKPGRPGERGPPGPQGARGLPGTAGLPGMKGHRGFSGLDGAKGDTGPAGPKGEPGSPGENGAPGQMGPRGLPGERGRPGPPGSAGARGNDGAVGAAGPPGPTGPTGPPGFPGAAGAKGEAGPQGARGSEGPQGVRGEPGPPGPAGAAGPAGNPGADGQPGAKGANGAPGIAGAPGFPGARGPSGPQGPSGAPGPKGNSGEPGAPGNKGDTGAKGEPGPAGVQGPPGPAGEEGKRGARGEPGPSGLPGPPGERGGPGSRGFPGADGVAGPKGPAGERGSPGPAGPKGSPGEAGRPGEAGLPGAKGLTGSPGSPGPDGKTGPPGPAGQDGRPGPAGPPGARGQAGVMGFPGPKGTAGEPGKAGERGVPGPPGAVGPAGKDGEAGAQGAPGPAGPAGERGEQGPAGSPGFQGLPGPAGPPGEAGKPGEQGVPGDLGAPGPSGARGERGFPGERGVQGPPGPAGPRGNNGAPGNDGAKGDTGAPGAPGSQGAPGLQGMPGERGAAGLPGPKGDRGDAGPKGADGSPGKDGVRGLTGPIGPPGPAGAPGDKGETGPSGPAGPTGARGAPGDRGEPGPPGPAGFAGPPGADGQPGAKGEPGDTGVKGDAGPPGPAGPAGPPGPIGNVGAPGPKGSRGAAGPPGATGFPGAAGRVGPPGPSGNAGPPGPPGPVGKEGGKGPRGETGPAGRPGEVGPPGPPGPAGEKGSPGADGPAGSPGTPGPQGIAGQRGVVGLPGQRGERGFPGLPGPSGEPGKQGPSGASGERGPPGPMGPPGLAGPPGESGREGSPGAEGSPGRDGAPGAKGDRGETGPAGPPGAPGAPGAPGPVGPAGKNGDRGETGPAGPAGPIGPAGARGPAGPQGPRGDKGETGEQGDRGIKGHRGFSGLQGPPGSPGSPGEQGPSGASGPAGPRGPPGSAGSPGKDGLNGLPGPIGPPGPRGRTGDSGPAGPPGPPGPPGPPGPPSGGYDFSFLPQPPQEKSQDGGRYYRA
Chain of collagen Type I (purified from rat tail) (rat) (P02466 86-1125, chain 2 of 2, further chain): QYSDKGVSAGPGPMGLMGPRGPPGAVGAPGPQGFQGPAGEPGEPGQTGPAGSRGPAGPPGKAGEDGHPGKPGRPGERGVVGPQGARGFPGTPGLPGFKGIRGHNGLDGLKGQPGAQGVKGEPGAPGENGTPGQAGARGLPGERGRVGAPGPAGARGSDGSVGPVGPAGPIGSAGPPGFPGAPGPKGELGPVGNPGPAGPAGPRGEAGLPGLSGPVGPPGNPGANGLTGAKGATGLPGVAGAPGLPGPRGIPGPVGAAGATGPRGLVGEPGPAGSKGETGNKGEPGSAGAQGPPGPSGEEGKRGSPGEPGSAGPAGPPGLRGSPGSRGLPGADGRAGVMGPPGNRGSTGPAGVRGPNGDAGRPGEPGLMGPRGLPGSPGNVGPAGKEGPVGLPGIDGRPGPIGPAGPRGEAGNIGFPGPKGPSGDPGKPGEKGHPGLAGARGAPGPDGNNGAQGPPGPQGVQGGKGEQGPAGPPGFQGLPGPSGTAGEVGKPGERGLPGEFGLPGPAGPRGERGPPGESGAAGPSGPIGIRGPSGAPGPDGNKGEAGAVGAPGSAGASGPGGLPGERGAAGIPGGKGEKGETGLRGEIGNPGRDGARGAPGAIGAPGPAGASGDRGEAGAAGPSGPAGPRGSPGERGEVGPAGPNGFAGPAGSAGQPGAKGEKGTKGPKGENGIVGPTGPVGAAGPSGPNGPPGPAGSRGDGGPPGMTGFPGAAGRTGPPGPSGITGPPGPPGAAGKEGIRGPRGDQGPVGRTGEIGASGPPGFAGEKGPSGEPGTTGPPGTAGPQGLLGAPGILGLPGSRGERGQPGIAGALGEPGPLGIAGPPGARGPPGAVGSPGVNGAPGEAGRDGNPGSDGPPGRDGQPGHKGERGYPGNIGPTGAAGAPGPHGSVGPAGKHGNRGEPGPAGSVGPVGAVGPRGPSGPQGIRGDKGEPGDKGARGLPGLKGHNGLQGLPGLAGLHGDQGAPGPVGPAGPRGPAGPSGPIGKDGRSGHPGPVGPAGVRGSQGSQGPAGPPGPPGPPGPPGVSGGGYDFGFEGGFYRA
The target in assay [7] is laminin (purified from basement membrane of Engelbreth-Holm-Swarm mouse sarcoma) (mouse) (UniProt P19137).

pKd: −log10 of the molar value. Several values for one entry are separate records, joined by “and”; a condition that tells them apart may be missing. Equal entries are not always repeated.

Chain of GroEL protein of Leptospira interrogans (recombinant, His-tagged) (P61438 whole entry): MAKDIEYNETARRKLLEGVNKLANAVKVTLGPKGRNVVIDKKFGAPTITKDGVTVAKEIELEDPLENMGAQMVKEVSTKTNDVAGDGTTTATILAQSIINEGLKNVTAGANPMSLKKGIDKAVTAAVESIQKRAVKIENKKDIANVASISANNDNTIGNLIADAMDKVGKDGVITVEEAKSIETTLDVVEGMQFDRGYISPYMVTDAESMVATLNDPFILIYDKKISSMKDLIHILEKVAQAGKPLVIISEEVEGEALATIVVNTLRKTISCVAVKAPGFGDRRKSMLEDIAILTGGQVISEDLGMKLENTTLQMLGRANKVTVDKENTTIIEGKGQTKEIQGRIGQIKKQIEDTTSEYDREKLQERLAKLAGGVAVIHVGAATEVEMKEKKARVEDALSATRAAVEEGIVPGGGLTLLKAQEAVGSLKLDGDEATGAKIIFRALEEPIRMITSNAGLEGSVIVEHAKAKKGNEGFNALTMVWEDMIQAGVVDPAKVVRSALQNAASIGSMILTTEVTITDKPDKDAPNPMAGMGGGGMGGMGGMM
Chain of fibrinogen (purified from human plasma) (human) (P02671 other isoform, or with tags, fused parts or gaps, chain 1 of 3): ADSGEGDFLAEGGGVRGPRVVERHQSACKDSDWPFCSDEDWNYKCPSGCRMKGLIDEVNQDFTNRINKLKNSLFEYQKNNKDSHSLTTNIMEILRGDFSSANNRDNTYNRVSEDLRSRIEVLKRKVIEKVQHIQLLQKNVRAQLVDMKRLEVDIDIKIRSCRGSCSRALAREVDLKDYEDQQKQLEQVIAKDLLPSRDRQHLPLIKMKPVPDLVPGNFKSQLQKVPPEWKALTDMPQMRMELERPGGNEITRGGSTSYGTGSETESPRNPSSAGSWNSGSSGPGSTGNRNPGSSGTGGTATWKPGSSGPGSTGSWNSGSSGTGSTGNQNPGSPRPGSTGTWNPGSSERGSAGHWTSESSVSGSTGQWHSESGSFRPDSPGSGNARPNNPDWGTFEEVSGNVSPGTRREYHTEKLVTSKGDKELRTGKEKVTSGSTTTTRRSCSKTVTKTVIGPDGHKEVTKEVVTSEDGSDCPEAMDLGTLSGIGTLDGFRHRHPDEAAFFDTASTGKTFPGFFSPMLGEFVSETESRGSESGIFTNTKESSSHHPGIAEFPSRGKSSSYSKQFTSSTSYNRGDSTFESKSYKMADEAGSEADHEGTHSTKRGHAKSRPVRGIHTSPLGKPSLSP
Chain of fibrinogen (purified from human plasma) (human) (P02675 31-491, chain 2 of 3, further chain): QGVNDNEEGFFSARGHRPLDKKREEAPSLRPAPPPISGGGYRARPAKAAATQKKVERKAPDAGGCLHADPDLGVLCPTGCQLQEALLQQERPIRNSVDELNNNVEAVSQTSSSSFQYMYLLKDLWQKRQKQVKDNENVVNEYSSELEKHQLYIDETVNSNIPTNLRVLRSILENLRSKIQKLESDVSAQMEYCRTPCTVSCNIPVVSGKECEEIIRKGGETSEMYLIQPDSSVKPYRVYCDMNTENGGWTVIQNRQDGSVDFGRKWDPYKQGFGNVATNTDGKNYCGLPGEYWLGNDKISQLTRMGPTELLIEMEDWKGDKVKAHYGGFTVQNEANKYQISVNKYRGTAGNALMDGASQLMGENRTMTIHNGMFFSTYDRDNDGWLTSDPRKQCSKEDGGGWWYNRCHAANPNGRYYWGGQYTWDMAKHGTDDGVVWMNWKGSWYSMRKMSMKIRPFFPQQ
Chain of fibrinogen (purified from human plasma) (human) (P02679 other isoform, or with tags, fused parts or gaps, chain 3 of 3, further chain): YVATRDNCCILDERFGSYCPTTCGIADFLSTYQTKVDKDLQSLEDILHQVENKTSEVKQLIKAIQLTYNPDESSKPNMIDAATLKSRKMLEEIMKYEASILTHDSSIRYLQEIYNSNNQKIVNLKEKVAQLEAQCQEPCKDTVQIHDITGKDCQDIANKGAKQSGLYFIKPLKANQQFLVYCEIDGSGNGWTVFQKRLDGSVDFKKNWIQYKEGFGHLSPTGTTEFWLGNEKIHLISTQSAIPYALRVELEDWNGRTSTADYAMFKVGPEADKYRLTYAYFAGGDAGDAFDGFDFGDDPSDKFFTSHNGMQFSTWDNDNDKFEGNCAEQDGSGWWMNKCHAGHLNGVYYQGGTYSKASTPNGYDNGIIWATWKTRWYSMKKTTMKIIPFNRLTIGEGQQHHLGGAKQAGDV

Take “leptospiral protein 25 (Lp25) (natural protein)”: the negative logarithm of the Kd (pKd) (as a rule, the negative decadic logarithm of the Kd, by convention in mol/L) in assay [1] is 5.62; in assay [2] it was 6.22; in assay [3], 6.22; in assay [4] it was 5.27 and 5.20; in assay [5] it was 5.35; in assay [6], 6.16. For the same substance, the pKd in assay [7] is 5.94.
With “GroEL protein of Leptospira interrogans (recombinant, His-tagged) (from UniProt P61438 1-546) (natural protein)”, the pKd was 7.47 and 8.00 in assay [4]; 7.51 in assay [5].
For “truncated form of leptospiral immunoglobulin-like protein B (LigBC, amino acids 631-1156) (from UniProt Q72V39 631-1156) (domain or fragment)”, the negative logarithm of the Kd (pKd) in assay [4] is 7.82 and 8.22; in assay [5], 8.30.

Source of the values: publication PMC8011160.
